Target: Fibronectin from human plasma (human) (UniProt P02751)
Assay: cell-based or functional assay

Chain of yeast enolase (Sigma) (P00924 2-437): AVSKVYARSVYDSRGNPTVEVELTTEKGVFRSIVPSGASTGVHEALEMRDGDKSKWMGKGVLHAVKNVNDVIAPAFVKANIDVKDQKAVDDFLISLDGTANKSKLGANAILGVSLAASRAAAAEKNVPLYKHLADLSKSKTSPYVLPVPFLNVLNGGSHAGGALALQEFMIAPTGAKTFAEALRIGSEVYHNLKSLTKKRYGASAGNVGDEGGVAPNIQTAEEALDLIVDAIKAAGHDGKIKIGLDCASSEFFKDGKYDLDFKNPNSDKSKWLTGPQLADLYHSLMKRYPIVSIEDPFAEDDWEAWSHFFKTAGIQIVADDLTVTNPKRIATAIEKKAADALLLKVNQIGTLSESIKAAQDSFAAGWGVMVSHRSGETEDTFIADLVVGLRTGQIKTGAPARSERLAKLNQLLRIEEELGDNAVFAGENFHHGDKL
Chain of Fibronectin from human plasma (human) (P02751 32-2477): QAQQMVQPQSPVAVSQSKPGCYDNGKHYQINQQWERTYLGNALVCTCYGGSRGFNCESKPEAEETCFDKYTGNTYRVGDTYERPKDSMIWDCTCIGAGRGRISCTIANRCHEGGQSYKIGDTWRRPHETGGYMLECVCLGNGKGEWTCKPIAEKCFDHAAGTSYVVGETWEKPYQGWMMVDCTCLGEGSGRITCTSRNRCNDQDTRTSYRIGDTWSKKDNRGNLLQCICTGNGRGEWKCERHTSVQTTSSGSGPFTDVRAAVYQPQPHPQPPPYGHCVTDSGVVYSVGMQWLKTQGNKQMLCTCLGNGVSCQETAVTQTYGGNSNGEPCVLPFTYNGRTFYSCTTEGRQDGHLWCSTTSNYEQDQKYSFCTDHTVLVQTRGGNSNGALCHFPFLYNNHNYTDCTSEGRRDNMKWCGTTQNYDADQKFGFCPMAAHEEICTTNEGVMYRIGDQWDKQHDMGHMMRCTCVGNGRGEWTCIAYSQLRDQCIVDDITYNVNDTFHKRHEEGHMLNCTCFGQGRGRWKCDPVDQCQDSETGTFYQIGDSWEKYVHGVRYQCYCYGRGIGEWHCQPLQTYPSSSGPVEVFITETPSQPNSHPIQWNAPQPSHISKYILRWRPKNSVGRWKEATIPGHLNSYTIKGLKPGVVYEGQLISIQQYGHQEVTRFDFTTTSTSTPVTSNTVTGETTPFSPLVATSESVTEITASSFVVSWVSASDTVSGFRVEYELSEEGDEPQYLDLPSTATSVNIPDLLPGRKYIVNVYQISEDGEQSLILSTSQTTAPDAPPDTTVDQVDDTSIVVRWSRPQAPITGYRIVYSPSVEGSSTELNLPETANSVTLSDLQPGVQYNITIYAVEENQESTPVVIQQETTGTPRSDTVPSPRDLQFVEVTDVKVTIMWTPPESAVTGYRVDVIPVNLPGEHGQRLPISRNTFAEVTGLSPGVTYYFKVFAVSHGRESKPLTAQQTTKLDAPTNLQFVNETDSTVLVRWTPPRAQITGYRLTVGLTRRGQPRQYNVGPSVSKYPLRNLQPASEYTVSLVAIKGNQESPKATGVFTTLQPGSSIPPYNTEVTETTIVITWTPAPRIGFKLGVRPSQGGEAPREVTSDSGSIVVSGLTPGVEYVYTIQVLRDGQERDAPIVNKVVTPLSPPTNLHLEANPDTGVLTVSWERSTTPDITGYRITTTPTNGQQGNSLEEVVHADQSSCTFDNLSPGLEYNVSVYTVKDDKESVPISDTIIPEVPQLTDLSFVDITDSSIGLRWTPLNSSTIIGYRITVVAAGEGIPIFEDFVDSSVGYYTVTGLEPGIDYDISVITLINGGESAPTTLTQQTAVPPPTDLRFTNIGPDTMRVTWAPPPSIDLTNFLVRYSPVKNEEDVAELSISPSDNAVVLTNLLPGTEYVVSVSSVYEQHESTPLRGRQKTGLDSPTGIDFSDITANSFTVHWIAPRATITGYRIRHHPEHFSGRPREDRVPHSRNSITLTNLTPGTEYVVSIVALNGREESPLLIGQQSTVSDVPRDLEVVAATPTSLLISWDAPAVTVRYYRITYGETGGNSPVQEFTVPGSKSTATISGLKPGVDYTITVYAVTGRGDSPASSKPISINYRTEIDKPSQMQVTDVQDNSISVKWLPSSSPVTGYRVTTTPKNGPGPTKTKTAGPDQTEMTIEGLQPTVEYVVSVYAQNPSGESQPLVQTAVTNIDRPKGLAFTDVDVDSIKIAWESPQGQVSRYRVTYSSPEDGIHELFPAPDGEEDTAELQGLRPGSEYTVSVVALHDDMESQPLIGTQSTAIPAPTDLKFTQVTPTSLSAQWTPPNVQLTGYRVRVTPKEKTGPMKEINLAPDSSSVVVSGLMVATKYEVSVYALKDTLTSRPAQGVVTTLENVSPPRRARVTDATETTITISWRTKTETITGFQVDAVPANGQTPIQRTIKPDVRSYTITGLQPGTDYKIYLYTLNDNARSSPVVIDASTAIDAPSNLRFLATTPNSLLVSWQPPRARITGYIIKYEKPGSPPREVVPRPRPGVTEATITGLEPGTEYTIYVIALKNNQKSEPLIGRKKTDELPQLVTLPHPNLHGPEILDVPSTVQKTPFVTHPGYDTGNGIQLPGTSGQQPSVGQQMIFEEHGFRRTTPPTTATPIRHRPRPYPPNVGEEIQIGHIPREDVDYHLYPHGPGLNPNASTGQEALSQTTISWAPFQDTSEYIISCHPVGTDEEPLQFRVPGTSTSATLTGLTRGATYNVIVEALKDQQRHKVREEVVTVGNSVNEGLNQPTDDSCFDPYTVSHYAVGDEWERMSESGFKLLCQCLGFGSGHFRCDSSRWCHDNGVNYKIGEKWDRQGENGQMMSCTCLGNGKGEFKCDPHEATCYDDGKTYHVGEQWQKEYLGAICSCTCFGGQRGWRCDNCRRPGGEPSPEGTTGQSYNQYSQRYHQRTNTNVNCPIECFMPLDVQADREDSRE

“yeast enolase (Sigma) (from UniProt P00924 2-437)” gave an inhibition of pneumococcal adherence to fibronectin coated wells of 98%.

From patent US20050048590A1
